Experimental data from paper PMC10743472.

Molecular target: CLPP, ATP-dependent Clp protease proteolytic subunit, mitochondrial (mouse (endogenous in mouse tissues)) (UniProt O88696)
Assay: native gel or EMSA; complexome profiling: mitochondria of WT and CLPP-null mouse testis, brain and heart (sucrose gradients), solubilised with digitonin, blue native electrophoresis on a 3 to 18% gradient gel, 48 slices, label-free mass spectrometry; co-migration read from the profiles

Chain of CLPP, ATP-dependent Clp protease proteolytic subunit, mitochondrial, O88696 53-272 (natural protein; other documents disagree on this pair) (O88696 53-272): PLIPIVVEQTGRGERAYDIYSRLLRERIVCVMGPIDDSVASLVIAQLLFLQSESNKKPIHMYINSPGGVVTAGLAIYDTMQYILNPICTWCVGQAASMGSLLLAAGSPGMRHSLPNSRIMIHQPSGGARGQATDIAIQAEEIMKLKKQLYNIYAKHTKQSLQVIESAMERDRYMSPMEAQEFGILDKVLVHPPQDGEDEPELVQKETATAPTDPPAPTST

stoichiometry N: 7
Substance: CLPP, ATP-dependent Clp protease proteolytic subunit, mitochondrial, O88696 53-272 (natural protein; other documents disagree on this pair)
